Positions count from the first letter of the chain named.
T1: human IFNAR-1 on cells (human, UniProt P17181 28-557)
T1 sequence (looked up): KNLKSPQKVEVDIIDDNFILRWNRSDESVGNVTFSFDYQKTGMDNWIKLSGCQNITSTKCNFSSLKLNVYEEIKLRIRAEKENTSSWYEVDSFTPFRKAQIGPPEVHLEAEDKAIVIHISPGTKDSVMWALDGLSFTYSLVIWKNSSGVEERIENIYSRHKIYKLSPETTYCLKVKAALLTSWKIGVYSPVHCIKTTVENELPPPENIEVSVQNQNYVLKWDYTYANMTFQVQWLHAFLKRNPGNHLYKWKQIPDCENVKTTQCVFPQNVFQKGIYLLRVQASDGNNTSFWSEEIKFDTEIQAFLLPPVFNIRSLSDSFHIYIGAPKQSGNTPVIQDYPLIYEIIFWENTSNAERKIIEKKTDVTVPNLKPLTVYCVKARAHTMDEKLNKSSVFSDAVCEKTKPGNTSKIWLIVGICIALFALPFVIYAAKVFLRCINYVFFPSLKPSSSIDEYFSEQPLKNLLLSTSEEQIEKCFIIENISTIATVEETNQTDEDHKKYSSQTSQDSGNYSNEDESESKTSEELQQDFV

T2: human IFNAR-1 protein (form not stated) (human, UniProt P17181 28-436, limits assumed)
T2 construct: bispecific ELISA
T2 sequence (looked up): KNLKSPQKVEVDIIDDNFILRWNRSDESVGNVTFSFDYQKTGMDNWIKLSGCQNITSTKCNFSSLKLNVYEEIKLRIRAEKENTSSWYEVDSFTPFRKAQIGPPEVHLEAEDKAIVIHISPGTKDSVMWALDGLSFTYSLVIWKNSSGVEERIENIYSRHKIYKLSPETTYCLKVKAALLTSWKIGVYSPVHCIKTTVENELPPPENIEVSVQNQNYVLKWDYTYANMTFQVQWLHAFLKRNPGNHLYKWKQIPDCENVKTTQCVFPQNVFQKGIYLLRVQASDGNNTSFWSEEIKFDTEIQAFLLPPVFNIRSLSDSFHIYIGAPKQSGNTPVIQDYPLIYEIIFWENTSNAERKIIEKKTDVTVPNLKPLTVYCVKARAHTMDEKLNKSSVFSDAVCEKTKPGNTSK

T3: hIFNAR-1(1aa-409aa) Y275A (human, UniProt P17181 28-436)
T3 construct: range 1-409
T3 sequence (looked up): T2 sequence (looked up) with Y248A

T4: hIFNAR-1(1aa-409aa) K278A (human, UniProt P17181 28-436)
T4 construct: range 1-409
T4 sequence (looked up): T2 sequence (looked up) with K251A

T5: hIFNAR-1(1aa-409aa) H273A (human, UniProt P17181 28-436)
T5 construct: range 1-409
T5 sequence (looked up): T2 sequence (looked up) with H246A

T6: hIFNAR-1(1aa-409aa) L274A (human, UniProt P17181 28-436)
T6 construct: range 1-409
T6 sequence (looked up): T2 sequence (looked up) with L247A

T7: hIFNAR-1(1aa-409aa) K276A (human, UniProt P17181 28-436)
T7 construct: range 1-409
T7 sequence (looked up): T2 sequence (looked up) with K249A

B1: 8G11 chimeric antibody (antibody, V domains shown)
VH: EVQLQQSGAELVKPGASVKLSCTGFGFNIKDYYMHWVKQRAEQGLEWIGRIDPEDGETKYAPKFQGKATITADTSSNTAYLQVSSLTSEDTAVYYCARGGNFYVMDYWGQGTSVTVSS
VL: DIVMTQSQKFMSTSVGDRVSVTCKASQNVGTNVVWYQQKPGQSPKVLIYSASYRVSGVPDRFTGSGSGTDFTLIISNVQSEDLAEYFCQQKNNYPYTFGGGTKLEIK
notes: also called chimeric 8G11
B2: 8G11 Fab (Fab, V domains shown)
VH: B1 VH
VL: B1 VL
B3: Anifrolumab (antibody, V domains shown)
VH: EVQLVQSGAEVKKPGESLKISCKGSGYIFTNYWIAWVRQMPGKGLESMGIIYPGDSDIRYSPSFQGQVTISADKSITTAYLQWSSLKASDTAMYYCARHDIEGFDYWGRGTLVTVSS
VL: EIVLTQSPGTLSLSPGERATLSCRASQSVSSSFFAWYQQKPGQAPRLLIYGASSRATGIPDRLSGSGSGTDFTLTITRLEPEDFAVYYCQQYDSSAITFGQGTRLEIKR

Tests used:
human IFNAR-1 on cells = target: T1, human IFNAR-1 on cells; assay: cell-based or functional assay
[1] = target: T2, human IFNAR-1 protein (form not stated); assay: ELISA on human IFNAR-1 protein
[2] = target: T3, hIFNAR-1(1aa-409aa) Y275A; assay: flow cytometry on alanine scan clone, normalised to WT
Excerpt: (§1) For each point, background fluorescence was subtracted from the raw data, which were then normalized to Fab reactivity with WT target protein. For each mutant clone, the mean binding value was plotted as a function of expression (represented by control reactivity).

[3] = target: T4, hIFNAR-1(1aa-409aa) K278A; assay: as above
Excerpt: as §1

[4] = target: T5, hIFNAR-1(1aa-409aa) H273A; assay: as above
Excerpt: as §1

[5] = target: T6, hIFNAR-1(1aa-409aa) L274A; assay: as above
Excerpt: as §1

[6] = target: T7, hIFNAR-1(1aa-409aa) K276A; assay: as above
Excerpt: as §1

Binder | EC50 (nM), IFNα2b-mediated anti-viral assay (Huh7-Con1b HCV replicon luciferase) (human IFNAR-1 on cells) | EC50 (read off the curve) [1] | Binding Reactivity (% WT) [2] | Binding Reactivity (% WT) [3] | Binding Reactivity (% WT) [4] | Binding Reactivity (% WT) [5] | Binding Reactivity (% WT) [6]
B1 | 7.73 nM | ~0.1 nM |  |  |  |  | 
B2 |  |  | 19.1 % WT | 3.9 % WT | 31.2 % WT | 22.7 % WT | 1.5 % WT
B3 |  |  | 146 % WT | 105 % WT | 88.1 % WT | 106 % WT | 99.4 % WT

Source: US20200399381A1 (I MAB BIOPHARMA US, published 2020)
